According to article doi:10.1101/2022.12.22.521673 (bioRxiv, 2022):
Each block holds one molecule with its values, some of them ahead of it.

Columns and labels:
[1] = target: Rim4-FLAG (S. cerevisiae) (UniProt P38741); test: mass photometry
Bmh2 = target: T1, Bmh2 (S. cerevisiae (endogenous in meiotic …, UniProt P34730 1-273)); test: mass photometry
T1 sequence (looked up): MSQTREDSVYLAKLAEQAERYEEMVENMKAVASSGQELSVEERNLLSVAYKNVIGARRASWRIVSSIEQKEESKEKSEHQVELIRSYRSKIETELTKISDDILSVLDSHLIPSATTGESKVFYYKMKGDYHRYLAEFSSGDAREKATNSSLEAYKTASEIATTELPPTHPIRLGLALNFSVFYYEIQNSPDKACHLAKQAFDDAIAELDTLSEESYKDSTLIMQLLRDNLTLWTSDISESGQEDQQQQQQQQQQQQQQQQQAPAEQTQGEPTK

recombinant Rim4-EGFP = target: T2, recombinant Rim4-EGFP (S. cerevisiae, UniProt P38741 1-713); test: pull-down
T2 sequence (looked up): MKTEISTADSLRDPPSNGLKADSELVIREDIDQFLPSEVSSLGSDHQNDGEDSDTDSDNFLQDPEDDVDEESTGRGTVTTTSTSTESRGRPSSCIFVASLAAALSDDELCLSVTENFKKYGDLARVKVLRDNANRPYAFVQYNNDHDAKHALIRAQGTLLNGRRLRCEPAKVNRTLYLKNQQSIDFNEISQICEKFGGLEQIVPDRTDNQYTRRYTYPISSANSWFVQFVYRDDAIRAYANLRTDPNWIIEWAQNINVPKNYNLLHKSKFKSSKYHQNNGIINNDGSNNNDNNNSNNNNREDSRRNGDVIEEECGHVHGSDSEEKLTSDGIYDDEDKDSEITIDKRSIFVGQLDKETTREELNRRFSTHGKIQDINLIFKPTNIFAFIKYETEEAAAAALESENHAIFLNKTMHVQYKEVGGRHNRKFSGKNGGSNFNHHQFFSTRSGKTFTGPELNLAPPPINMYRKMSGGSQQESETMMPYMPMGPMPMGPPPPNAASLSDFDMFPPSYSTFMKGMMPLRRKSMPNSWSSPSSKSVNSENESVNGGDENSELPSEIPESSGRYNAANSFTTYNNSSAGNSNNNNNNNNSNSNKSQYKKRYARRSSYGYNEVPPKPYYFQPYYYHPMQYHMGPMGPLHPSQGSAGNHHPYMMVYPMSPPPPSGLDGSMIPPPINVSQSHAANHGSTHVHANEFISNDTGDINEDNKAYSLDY

recombinant Rim4-6×His = target: T3, recombinant Rim4-6×His (S. cerevisiae, UniProt P38741 1-713); test: pull-down
T3 sequence (looked up): T2 sequence (looked up)

- stoichiometry N [1]: 1
Molecule: Bmh2 (from UniProt P34730 1-273) (natural protein)

- stoichiometry N (Bmh2): 1
- stoichiometry N [1]: 1
B1: Bmh1 (natural protein, UniProt P29311 1-267, looked up)
chain: MSTSREDSVYLAKLAEQAERYEEMVENMKTVASSGQELSVEERNLLSVAYKNVIGARRASWRIVSSIEQKEESKEKSEHQVELICSYRSKIETELTKISDDILSVLDSHLIPSATTGESKVFYYKMKGDYHRYLAEFSSGDAREKATNASLEAYKTASEIATTELPPTHPIRLGLALNFSVFYYEIQNSPDKACHLAKQAFDDAIAELDTLSEESYKDSTLIMQLLRDNLTLWTSDMSESGQAEDQQQQQQHQQQQPPAAAEGEAPK

- binding result (recombinant Rim4-EGFP): binds
- binding result (recombinant Rim4-6×His): binds
B2: recombinant Cdc14-FLAG (enzyme, S. cerevisiae, UniProt Q00684 1-551, looked up)
chain: MRRSVYLDNTIEFLRGRVYLGAYDYTPEDTDELVFFTVEDAIFYNSFHLDFGPMNIGHLYRFAVIFHEILNDPENANKAVVFYSSASTRQRANAACMLCCYMILVQAWTPHQVLQPLAQVDPPFMPFRDAGYSNADFEITIQDVVYGVWRAKEKGLIDLHSFNLESYEKYEHVEFGDFNVLTPDFIAFASPQEDHPKGYLATKSSHLNQPFKSVLNFFANNNVQLVVRLNSHLYNKKHFEDIGIQHLDLIFEDGTCPDLSIVKNFVGAAETIIKRGGKIAVHCKAGLGRTGCLIGAHLIYTYGFTANECIGFLRFIRPGMVVGPQQHWLYLHQNDFREWKYTTRISLKPSEAIGGLYPLISLEEYRLQKKKLKDDKRVAQNNIEGELRDLTMTPPSNGHGALSARNSSQPSTANNGSNSFKSSAVPQTSPGQPRKGQNGSNTIEDINNNRNPTSHANRKVVIESNNSDDESMQDTNGTSNHYPKVSRKKNDISSASSSRMEDNEPSATNINNAADDTILRQLLPKNRRVTSGRRTTSAAGGIRKISGSIKK
